Values quoted from earlier work as cited in PMC10364474.

Target: integrin α5β1 (Homo sapiens) (UniProt P08648)
UniProt P08648, sequence (P08648 42-995, chain 1 of 2): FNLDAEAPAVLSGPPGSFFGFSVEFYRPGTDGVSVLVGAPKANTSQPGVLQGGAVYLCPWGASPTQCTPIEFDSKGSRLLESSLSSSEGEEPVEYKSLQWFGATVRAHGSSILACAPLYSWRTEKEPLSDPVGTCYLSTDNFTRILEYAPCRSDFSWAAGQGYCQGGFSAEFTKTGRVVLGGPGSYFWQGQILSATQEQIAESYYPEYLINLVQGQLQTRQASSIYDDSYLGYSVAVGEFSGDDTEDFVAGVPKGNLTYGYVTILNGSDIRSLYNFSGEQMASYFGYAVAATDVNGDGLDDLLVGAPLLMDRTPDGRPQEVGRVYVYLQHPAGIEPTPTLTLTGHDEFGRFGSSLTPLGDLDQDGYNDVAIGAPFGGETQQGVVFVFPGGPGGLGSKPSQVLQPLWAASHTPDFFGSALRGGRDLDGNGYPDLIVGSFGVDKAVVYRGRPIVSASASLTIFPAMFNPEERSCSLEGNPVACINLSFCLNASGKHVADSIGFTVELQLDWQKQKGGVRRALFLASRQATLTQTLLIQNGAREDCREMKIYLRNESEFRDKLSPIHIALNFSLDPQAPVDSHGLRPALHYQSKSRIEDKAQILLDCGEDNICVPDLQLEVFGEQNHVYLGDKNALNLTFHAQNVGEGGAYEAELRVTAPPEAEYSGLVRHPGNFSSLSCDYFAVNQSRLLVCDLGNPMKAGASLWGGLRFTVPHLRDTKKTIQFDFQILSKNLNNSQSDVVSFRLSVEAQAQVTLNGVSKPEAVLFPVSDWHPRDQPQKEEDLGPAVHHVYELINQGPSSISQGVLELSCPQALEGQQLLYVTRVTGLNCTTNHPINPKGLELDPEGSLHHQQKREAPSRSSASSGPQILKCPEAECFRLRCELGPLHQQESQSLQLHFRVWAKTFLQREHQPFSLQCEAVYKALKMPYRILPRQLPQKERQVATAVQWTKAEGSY
UniProt P08648, sequence (P05556 21-728, chain 2 of 2, further chain): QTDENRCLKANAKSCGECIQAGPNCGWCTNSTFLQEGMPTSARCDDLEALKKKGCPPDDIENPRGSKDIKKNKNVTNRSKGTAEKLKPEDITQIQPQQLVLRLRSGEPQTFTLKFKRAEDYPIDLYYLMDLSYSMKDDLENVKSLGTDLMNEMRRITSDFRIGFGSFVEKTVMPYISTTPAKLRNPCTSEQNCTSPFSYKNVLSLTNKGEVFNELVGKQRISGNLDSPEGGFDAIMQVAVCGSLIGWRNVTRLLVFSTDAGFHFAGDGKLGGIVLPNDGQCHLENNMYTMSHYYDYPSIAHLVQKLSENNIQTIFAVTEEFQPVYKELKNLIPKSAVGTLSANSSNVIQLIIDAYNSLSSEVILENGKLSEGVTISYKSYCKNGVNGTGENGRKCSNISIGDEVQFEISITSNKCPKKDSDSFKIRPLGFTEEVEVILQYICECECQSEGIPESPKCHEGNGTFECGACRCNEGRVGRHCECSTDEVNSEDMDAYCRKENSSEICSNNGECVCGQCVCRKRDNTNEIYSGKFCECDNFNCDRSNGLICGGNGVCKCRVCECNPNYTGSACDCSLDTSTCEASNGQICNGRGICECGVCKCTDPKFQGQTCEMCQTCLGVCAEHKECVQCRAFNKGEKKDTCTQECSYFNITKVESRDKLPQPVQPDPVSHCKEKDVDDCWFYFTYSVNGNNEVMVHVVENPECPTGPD

Substance: Fibrinogen alpha chain RGD 572-574 (from UniProt P02671)
- Kd: 65 nM
